Data: patent publication US20250304644A1, “PEPTIDES TRIPLE AGONISTS OF GIP, GLP-1 AND GLP-2” (BAINAN BIOTECH APS, priority 2021, published 2025)
*1 amine or outer side, *2 acyl side, *3 side chain or, on linkers, in order; H or OH if unused. Where a SMILES comes first, the peptide text is derived from it. Where no end group is shown, it is not given here. Side-chain parts run from the residue outwards. The star is where a group is joined. C18 diacid = O=C(O)CCCCCCCCCCCCCCCCC(=O)*; γGlu = O=C(O)[C@H](CCC(=O)[*:2])N[*:1]; AEEA = NCCOCCOCC(=O)O

T1: human GIPR (Homo sapiens, UniProt P48546)
T1 construct: host or cells: COS-7
T1 sequence (P48546 22-466): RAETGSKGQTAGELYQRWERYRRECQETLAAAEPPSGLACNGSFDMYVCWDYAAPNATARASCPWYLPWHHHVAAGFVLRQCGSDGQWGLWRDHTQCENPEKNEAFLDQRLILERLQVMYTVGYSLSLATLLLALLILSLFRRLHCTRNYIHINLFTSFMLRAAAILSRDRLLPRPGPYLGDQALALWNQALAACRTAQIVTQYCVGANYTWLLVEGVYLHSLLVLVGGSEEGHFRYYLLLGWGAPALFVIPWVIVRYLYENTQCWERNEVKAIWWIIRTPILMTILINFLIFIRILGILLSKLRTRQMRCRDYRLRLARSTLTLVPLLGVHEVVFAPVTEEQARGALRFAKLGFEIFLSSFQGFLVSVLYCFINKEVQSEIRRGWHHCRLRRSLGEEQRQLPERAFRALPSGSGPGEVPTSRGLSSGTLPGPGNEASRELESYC

T2: human GLP-2R (Homo sapiens, UniProt O95838)
T2 construct: host or cells: COS-7
T2 sequence (O95838 1-553): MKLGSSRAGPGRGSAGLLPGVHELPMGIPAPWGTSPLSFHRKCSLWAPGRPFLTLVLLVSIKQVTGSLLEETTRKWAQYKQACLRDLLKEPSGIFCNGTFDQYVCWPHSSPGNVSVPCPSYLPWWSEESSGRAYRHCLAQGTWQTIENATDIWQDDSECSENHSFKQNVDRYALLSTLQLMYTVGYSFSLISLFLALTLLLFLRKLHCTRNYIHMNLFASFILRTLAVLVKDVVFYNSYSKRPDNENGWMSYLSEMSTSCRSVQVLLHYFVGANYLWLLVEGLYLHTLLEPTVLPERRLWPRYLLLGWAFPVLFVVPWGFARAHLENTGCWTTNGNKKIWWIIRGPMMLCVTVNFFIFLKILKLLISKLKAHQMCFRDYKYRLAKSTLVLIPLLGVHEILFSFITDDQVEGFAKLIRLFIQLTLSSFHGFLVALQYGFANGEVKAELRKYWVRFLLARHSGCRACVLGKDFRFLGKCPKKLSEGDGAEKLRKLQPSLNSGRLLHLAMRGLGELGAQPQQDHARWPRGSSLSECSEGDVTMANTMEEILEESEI

T3: human SNAP-tagged GIPR (Homo sapiens, UniProt P48546)
T3 construct: host or cells: HEK293A
T3 sequence (P48546 22-466): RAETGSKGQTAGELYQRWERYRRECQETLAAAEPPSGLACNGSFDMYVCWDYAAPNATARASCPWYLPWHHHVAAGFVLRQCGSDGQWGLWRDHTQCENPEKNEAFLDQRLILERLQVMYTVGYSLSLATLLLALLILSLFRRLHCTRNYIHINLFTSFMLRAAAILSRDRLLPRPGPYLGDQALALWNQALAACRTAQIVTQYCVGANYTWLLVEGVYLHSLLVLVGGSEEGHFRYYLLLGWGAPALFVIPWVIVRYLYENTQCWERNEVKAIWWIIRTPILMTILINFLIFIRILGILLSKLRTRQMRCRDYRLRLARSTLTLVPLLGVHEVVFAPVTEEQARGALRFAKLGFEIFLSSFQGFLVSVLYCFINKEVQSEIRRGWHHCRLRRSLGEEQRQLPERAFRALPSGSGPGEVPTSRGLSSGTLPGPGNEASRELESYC

T4: human SNP-tagged GLP-2R (Homo sapiens, UniProt O95838)
T4 construct: expressed in transfected cells; host or cells: HEK293A
T4 sequence (O95838 1-553): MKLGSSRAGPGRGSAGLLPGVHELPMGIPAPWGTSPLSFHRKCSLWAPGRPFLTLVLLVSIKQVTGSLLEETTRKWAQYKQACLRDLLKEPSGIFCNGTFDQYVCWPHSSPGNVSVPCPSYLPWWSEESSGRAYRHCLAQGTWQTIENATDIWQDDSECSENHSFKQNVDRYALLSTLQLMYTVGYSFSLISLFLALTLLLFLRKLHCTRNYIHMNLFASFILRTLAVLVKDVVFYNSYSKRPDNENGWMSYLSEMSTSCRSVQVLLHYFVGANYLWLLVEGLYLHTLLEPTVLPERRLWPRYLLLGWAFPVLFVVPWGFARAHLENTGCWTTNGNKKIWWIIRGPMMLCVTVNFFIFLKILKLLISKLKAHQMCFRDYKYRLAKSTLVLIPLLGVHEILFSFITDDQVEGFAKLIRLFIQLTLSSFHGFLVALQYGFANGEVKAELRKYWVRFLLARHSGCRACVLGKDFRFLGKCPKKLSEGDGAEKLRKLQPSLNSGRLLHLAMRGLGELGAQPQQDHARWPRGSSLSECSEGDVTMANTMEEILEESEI

T5: human GIPR (glucose-dependent insulinotropic polypeptide receptor) (human, UniProt P48546 22-466)
T5 sequence (looked up): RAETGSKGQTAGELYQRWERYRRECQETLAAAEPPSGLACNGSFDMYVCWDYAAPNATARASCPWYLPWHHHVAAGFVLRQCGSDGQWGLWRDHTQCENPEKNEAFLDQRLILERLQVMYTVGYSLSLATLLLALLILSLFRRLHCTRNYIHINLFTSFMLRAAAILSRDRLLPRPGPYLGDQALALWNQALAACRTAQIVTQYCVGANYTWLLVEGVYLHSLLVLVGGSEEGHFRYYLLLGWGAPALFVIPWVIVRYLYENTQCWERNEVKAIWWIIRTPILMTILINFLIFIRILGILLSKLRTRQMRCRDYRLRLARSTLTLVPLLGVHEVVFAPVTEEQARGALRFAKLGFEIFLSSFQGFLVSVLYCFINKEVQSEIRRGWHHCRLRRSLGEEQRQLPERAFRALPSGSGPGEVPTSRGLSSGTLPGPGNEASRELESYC

T6: human GLP-2R (glucagon-like peptide-2 receptor) (human, UniProt O95838 1-553)
T6 sequence (looked up): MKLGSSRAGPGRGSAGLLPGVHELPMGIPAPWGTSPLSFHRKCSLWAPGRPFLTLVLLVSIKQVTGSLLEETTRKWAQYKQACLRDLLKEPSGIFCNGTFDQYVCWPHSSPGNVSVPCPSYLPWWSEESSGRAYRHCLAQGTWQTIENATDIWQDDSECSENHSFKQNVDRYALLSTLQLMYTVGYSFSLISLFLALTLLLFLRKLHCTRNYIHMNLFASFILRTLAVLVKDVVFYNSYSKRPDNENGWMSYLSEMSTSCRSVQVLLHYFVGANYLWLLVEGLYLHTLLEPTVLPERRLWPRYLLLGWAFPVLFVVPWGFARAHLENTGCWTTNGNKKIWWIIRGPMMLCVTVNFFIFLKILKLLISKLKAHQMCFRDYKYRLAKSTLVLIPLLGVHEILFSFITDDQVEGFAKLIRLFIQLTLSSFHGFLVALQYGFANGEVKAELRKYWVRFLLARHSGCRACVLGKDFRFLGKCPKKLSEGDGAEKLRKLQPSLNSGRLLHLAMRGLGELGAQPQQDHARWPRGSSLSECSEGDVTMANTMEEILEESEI

T7: Human N-terminally SNAP-tagged GIPR (human, UniProt P48546 22-466, SNAP tag labeled with Tag-Lite SNAP-Lumi4-Tb)
T7 sequence (looked up): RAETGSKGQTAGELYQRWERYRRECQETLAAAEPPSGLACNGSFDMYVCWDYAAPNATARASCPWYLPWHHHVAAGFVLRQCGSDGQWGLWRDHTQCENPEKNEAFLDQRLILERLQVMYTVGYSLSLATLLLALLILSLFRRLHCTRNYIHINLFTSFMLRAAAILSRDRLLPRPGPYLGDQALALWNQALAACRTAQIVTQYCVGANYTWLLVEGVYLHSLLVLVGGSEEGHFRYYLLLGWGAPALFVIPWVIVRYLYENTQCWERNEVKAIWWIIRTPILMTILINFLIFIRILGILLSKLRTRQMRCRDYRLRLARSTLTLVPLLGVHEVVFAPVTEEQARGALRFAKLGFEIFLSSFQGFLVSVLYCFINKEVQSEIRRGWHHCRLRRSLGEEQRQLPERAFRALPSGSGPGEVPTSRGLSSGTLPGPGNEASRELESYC


How the values were obtained:
human GIPR = target: T1, human GIPR; test: cAMP assay (HitHunter) in transiently transfected COS-7 cells expressing human GIPR; type: cell-based; settings: COS-7; normalized to highest concentration of the endogenous ligand; read-out: Efficacy GIPR (Emax)
human GLP-2R = target: T2, human GLP-2R; test: cAMP assay (HitHunter) in transiently transfected COS-7 cells expressing human GLP-2R; type: cell-based; settings: COS-7; normalized to highest concentration of the endogenous ligand; read-out: Efficacy GLP-2R (Emax)
human GLP-1R = target: T8, human GLP-1R (Homo sapiens, UniProt P43220); test: cAMP assay (HitHunter) in transiently transfected COS-7 cells expressing human GLP-1R; type: cell-based; settings: COS-7; normalized to highest concentration of the endogenous ligand; read-out: Efficacy GLP-1R (Emax)
T8 construct: host or cells: COS-7
T8 sequence (P43220 24-463): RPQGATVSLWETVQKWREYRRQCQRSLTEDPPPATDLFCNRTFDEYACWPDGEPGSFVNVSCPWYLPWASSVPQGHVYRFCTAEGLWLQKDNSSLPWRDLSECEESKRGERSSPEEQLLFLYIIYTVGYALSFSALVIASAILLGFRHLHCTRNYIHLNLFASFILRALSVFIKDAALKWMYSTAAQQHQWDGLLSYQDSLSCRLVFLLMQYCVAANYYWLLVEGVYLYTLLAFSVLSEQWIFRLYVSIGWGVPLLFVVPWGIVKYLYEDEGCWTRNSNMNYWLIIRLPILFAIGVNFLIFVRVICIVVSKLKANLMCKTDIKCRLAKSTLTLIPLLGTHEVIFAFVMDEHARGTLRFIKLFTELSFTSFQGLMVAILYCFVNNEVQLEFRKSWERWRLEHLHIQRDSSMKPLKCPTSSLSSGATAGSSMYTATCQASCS

human SNAP-tagged GIPR = target: T3, human SNAP-tagged GIPR; test: Receptor internalization assay, HEK293A cells expressing human SNAP-tagged GIPR; type: cell-based; settings: AUC of sigmoid curves up to 1 μM; 60 minutes at 37° C.
human SNAP-tagged GLP-1R = target: T9, human SNAP-tagged GLP-1R (Homo sapiens, UniProt P43220); test: Receptor internalization assay, HEK293A cells expressing human SNAP-tagged GLP-1R; type: cell-based; settings: AUC of sigmoid curves up to 1 μM; 60 minutes at 37° C.
T9 construct: expressed in transfected cells; host or cells: HEK293A
T9 sequence (P43220 24-463): as above

human SNP-tagged GLP-2R = target: T4, human SNP-tagged GLP-2R; test: Receptor internalization assay, HEK293A cells expressing human SNAP-tagged GLP-2R; type: cell-based; settings: AUC of sigmoid curves up to 1 μM; 60 minutes at 37° C.
[1] = target: T5, human GIPR (glucose-dependent …); test: cell-based or functional assay
[2] = target: T6, human GLP-2R (glucagon-like peptide-2 …); test: cell-based or functional assay
[3] = target: human GLP-1R (glucagon-like peptide-1 receptor) (human, UniProt P43220 24-463); test: cell-based or functional assay
[4] = target: T7, Human N-terminally SNAP-tagged GIPR; test: cell-based or functional assay

Molecule | Emax (human GIPR) [%] | Emax (human GLP-2R) [%] | Emax (human GLP-1R) [%] | Absolute hGIPR internalization (AUC) (human SNAP-tagged GIPR) | Absolute hGLP-1R internalization (AUC) (human SNAP-tagged GLP-1R) | Absolute hGLP-2R internalization (AUC) (human SNP-tagged GLP-2R) | Efficacy GIPR [1] | pEC50 GIPR [1] | EC50 (nM) GLP-2R [2] [nM] | Efficacy GLP-2R [2] | logEC50 GLP-2R [2] | EC50 (nM) GLP-1R [3] [nM] | Efficacy GLP-1R [3] | logEC50 GLP-1R [3] | Absolute hGIPR internalization (AUC) [4] [AUC] | Relative hGIPR internalization (%) [4] [%]
CC[C@H](C)[C@H](NC(=O)[C@H](Cc1ccccc1)NC(=O)[C@H](CC(=O)O)NC(=O)[C@H](CCCNC(=N)N)NC(=O)[C@H](C)NC(=O)[C@H](C)NC(=O)[C@H](CC(C)C)NC(=O)[C@H](CC(N)=O)NC(=O)[C@H](CC(=O)O)NC(=O)[C@H](CC(C)C)NC(=O)[C@@H](NC(=O)[C@@H](NC(=O)[C@H](CO)NC(=O)[C@H](Cc1ccc(O)cc1)NC(=O)[C@H](CC(=O)O)NC(=O)[C@H](CO)NC(=O)[C@@H](NC(=O)[C@H](Cc1ccccc1)NC(=O)[C@@H](NC(=O)CNC(=O)[C@H](CC(=O)O)NC(=O)[C@H](C)NC(=O)[C@@H](N)Cc1c[nH]cn1)[C@@H](C)O)[C@@H](C)CC)[C@@H](C)O)[C@@H](C)CC)C(=O)N[C@@H](CC(N)=O)C(=O)N[C@@H](Cc1c[nH]c2ccccc12)C(=O)N[C@@H](CC(C)C)C(=O)N[C@H](C(=O)N[C@@H](CCC(N)=O)C(=O)N[C@H](C(=O)N[C@@H](CCCCN)C(=O)NCC(=O)N[C@@H](CCCCN)C(=O)N[C@@H](CCCCN)C(=O)N[C@@H](CCCCNC(=O)COCCOCCNC(=O)COCCOCCNC(=O)CC[C@H](NC(=O)CCCCCCCCCCCCCCCCC(=O)O)C(=O)O)C(=O)O)[C@@H](C)O)[C@@H](C)CC [Compound 34] (H-HADGTFISDYSTILDNLAARDFINWLIQTKGKKK([AEEA-AEEA-γGlu-C18 diacid])-OH; N-terminus assumed) | 103 | 91 | 97 | 14.7 | 6.0 | 8.0 | – | – | – | – | – | – | – | – | – | –
HADGTFTSDYSTILDNLAARDFINWLIQTKGKK([γGlu-C18 diacid])-OH (N-terminus assumed; SMILES CC[C@H](C)[C@H](NC(=O)[C@H](Cc1ccccc1)NC(=O)[C@H](CC(=O)O)NC(=O)[C@H](CCCNC(=N)N)NC(=O)[C@H](C)NC(=O)[C@H](C)NC(=O)[C@H](CC(C)C)NC(=O)[C@H](CC(N)=O)NC(=O)[C@H](CC(=O)O)NC(=O)[C@H](CC(C)C)NC(=O)[C@@H](NC(=O)[C@@H](NC(=O)[C@H](CO)NC(=O)[C@H](Cc1ccc(O)cc1)NC(=O)[C@H](CC(=O)O)NC(=O)[C@H](CO)NC(=O)[C@@H](NC(=O)[C@H](Cc1ccccc1)NC(=O)[C@@H](NC(=O)CNC(=O)[C@H](CC(=O)O)NC(=O)[C@H](C)NC(=O)[C@@H](N)Cc1c[nH]cn1)[C@@H](C)O)[C@@H](C)O)[C@@H](C)O)[C@@H](C)CC)C(=O)N[C@@H](CC(N)=O)C(=O)N[C@@H](Cc1c[nH]c2ccccc12)C(=O)N[C@@H](CC(C)C)C(=O)N[C@H](C(=O)N[C@@H](CCC(N)=O)C(=O)N[C@H](C(=O)N[C@@H](CCCCN)C(=O)NCC(=O)N[C@@H](CCCCN)C(=O)N[C@@H](CCCCNC(=O)CC[C@H](NC(=O)CCCCCCCCCCCCCCCCC(=O)O)C(=O)O)C(=O)O)[C@@H](C)O)[C@@H](C)CC) [Compound 19] | – | – | – | – | – | – | 92 | 9.2 | 31.6 | 94 | 7.5 | 0.06 | 106 | 10.2 | 8.9 | 24
